Source: US20250154265A1 (BEIGENE, published 2025)
Where a chain is given by its changes, count along the chain named.

How the values were obtained:
Experiment in all cases: cell-based or functional assay
[1] = target: T1, human cMET on cells (Hs746T, H596, EBC-1) (human, UniProt P08581 25-1390)
[2] = target: T1, human cMET on cells (Hs746T, H596, …); remark: listed apart in the source
[3] = target: T1, human cMET on cells (Hs746T, H596, …); remark: listed apart in the source

T1 sequence (P08581 25-1390 limits assumed): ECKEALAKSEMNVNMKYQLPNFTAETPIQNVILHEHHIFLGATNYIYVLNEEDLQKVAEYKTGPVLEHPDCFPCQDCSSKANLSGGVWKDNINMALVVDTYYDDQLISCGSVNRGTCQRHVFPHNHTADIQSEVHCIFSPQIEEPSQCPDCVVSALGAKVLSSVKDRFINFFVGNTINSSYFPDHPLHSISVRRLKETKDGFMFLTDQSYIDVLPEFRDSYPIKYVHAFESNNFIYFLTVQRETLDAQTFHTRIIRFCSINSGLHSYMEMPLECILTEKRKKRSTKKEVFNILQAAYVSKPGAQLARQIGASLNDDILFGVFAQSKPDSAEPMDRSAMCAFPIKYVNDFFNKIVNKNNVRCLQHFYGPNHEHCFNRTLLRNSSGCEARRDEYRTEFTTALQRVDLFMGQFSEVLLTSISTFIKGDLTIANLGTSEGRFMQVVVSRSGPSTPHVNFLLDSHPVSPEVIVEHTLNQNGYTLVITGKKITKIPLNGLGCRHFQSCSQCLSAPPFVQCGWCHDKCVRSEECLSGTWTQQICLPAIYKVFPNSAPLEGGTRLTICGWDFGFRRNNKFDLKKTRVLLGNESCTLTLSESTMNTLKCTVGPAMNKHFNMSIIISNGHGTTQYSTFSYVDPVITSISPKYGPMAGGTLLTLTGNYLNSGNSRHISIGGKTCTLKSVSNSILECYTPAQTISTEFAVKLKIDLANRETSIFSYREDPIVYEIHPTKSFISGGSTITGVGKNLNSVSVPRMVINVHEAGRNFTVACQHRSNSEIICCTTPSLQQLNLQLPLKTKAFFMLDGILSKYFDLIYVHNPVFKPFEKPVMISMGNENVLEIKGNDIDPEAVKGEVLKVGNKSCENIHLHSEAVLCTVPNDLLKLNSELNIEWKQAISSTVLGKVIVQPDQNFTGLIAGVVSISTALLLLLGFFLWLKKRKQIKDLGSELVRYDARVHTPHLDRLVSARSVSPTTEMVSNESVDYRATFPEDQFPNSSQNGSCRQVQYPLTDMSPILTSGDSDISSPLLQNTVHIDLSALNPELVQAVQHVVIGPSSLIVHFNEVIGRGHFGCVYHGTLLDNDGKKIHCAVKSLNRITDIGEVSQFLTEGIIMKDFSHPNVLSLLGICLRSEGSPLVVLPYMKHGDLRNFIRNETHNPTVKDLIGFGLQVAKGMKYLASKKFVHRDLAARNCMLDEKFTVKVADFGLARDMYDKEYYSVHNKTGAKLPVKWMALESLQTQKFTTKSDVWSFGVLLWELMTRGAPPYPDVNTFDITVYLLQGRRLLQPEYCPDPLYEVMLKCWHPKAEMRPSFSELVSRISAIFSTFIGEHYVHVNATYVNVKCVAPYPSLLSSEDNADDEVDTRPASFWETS

B1: 063Ab07710 (antibody, human IgG1, kappa, V domains shown)
VH: QVQLVESGGGVVQPGRSLRLSCAASGFTFSSYGMHWVRQAPGKGLEWVAVISNDGSYKYYVDSVTGRFTISRDNSKNTLYLQMNSLRAEDTAVYYCAKDRNMGYSGWFDYWGQGSLVTVSS
VL: not shown
With B1 the “IC50, inhibition of HGF-induced ERK phospho-T202/Y204 in H596 cells” value [1] was over 250 nM.

B2: 06BS02 (bispecific antibody, V domains shown)
VH 1: B1 VH with Y32H, N53Y, G55E, Y57D, V61A, T65K, N74H, A97V, F108L, S115T
VH 2: QFQLQESGPGLVKPSETLSLTCTVSGGSISTSSYYWGWIRQPPGKGLEWIGTIYFSGTTYYNPSLTSRVSMSVDTSKNQFSLKLNSVTAADTSIYYCARHWPKYNSWFDPWGQGFLVTVSS
VL: not shown
With B2 the “Imax %, inhibition of HGF-induced ERK phospho-T202/Y204 in H596 cells” value [2] was 90%.

B3: 06BS03 (bispecific antibody, V domains shown)
VH 1: QVQLVESGGGVVQPGKSLRLSCAASGFTFSSSGLHWVRQAPGKGLEWVAVISYDTSNKYYADSVKGRFTISRDNSKNTLYLQMNSLRAEDTAVYYCAKDLNRGYDWGFDYWGQGTLVTVSS
VH 2: B2 VH 2 with F55Y, T66K, S70T, M71I, N85K, F115I
VL: not shown
B3 was tested, and the “IC50, inhibition of ERK phospho-T202/Y204 in Hs746T cells” value [3] was 0.5 nM.
